Laboratory results reported in patent publication US20200199204A1 (UNITED STATES OF AMERICA AS REPRESENTED BY THE SECRETARY …, published 2020).

Assays:
Assay in all cases: cell-based or functional assay
[1] = target: HIV-1 Env of ZM135.10a (HIV-1)
[2] = target: HIV-1 Env of RHPA.7 (HIV-1)
[3] = target: HIV-1 Env of BG505.w6m (HIV-1)
[4] = target: HIV-1 Env of Q461.e2 (HIV-1)
[5] = target: HIV-1 Env of TRJO.58 (HIV-1)
[6] = target: HIV-1 Env of UG037.8 (HIV-1)
[7] = target: HIV-1 Env of ZM109.4 (HIV-1)
[8] = target: HIV-1 Env of TRO.11 (HIV-1)
[9] = target: HIV-1 Env of Q842.d12 (HIV-1)
[10] = target: HIV-1 Env of Q769.d22 (HIV-1)
[11] = target: HIV-1 Env of 6405.v4.c34 (HIV-1)
[12] = target: HIV-1 Env of Q259.d2.17 (HIV-1)
[13] = target: HIV-1 Env of CNE3 (HIV-1)
[14] = target: HIV-1 Env of CAP45.G3 (HIV-1)
[15] = target: HIV-1 Env of 3016.V5.c36 (HIV-1)
[16] = target: HIV-1 Env of CM244.ec1 (HIV-1)
[17] = target: HIV-1 Env of Q168.a2 (HIV-1)
[18] = target: HIV-1 Env of 191821.E6.1 (HIV-1)
[19] = target: HIV-1 Env of ZM197.7 (HIV-1)
[20] = target: HIV-1 Env of DU422.01 (HIV-1)
[21] = target: HIV-1 Env of AC10.29 (HIV-1)
[22] = target: HIV-1 Env of SC422.8 (HIV-1)
[23] = target: HIV-1 Env of RW020.2 (HIV-1)
[24] = target: HIV-1 Env of REJO.67 (HIV-1)
[25] = target: HIV-1 Env of QH0692.42 (HIV-1)
[26] = target: HIV-1 Env of DU172.17 (HIV-1)
[27] = target: HIV-1 Env of 96ZM651.02 (HIV-1)
[28] = target: HIV-1 Env of THRO.18 (HIV-1)
[29] = target: HIV-1 Env of CAP256.SU (HIV-1)
[30] = target: HIV-1 Env of CAP256.PI (HIV-1)
[31] = target: HIV-1 Env of CAAN.A2 (HIV-1)
[32] = target: HIV-1 Env of TH976.17 (HIV-1)
[33] = target: HIV-1 Env of ZM233.6 (HIV-1)
[34] = target: HIV-1 Env of DU156.12 (HIV-1)
[35] = target: HIV-1 Env of MB539.2B7 (HIV-1)
[36] = target: HIV-1 Env of PVO.04 (HIV-1)
[37] = target: HIV-1 Env of Q23.17 (HIV-1)
[38] = target: HIV-1 Env of CAP210.E8 (HIV-1)
[39] = target: HIV-1 Env of WITO.33 (HIV-1)
[40] = target: HIV-1 Env of ZM53.12 (HIV-1)
[41] = target: HIV-1 Env of 6535.3 (HIV-1)
[42] = target: HIV-1 Env of 0260.v5.c36 (HIV-1)
[43] = target: HIV-1 Env of KER2008.12 (HIV-1)
[44] = target: HIV-1 Env of MB201 (HIV-1)
[45] = target: HIV-1 Env of ZM249.1 (HIV-1)
[46] = target: HIV-1 Env of ZM214.15 (HIV-1)
[47] = target: HIV-1 Env of C1080.c3 (HIV-1)
[48] = target: HIV-1 Env of KER2018.11 (HIV-1)
[49] = target: HIV-1 Env of CAP244.D3 (HIV-1)

B1: CAP256-VRC26.05 (antibody, V domains shown)
VH: EVQLVESGGGVVQPGRSLRLSCAASHFSLSSYGMHWVRQAPGKGLEWVTGISFAGTKTYYGDSVRGRFTVSRDISKNTLFLQMNSLRPDDTAMYYCARDQRYYECEEWASDYYDFGREQPCLDPRGVVGIFDLWGQGTMVTVSS
VL: QSALTQPPSVSAAPGQKVTISCSGNIGNNYVSWYQQVPGTAPKLLIYENNKRPSGIPDRFSGSKSGTSATLVITGLQTGDEADFYCGTWGGSLRTGGVLGTGTRVTVLG
[1]
  neutralization IC50: > 50 µg/mL
[2]
  neutralization IC50: > 50 µg/mL
[3]
  neutralization IC50: > 50 µg/mL
[4]
  neutralization IC50: > 50 µg/mL
[5]
  neutralization IC50: > 50 µg/mL
[6]
  neutralization IC50: > 50 µg/mL
[7]
  neutralization IC50: 26.5 µg/mL
[8]
  neutralization IC50: > 50 µg/mL
[9]
  neutralization IC50: > 50 µg/mL
[10]
  neutralization IC50: > 50 µg/mL
[11]
  neutralization IC50: > 50 µg/mL
[12]
  neutralization IC50: 0.023 µg/mL
[13]
  neutralization IC50: > 50 µg/mL
[14]
  neutralization IC50: > 50 µg/mL
[15]
  neutralization IC50: 0.011 µg/mL
[16]
  neutralization IC50: 0.517 µg/mL
[17]
  neutralization IC50: > 50 µg/mL
[18]
  neutralization IC50: > 50 µg/mL
[19]
  neutralization IC50: 0.113 µg/mL
[20]
  neutralization IC50: > 50 µg/mL
[21]
  neutralization IC50: > 50 µg/mL
[22]
  neutralization IC50: > 50 µg/mL
[23]
  neutralization IC50: > 50 µg/mL
[24]
  neutralization IC50: > 50 µg/mL
[25]
  neutralization IC50: > 50 µg/mL
[26]
  neutralization IC50: > 50 µg/mL
[27]
  neutralization IC50: > 50 µg/mL
[28]
  neutralization IC50: > 50 µg/mL
[29]
  neutralization IC50: 0.007 µg/mL
[30]
  neutralization IC50: > 50 µg/mL
[31]
  neutralization IC50: > 50 µg/mL
[32]
  neutralization IC50: > 50 µg/mL
[33]
  neutralization IC50: 0.003 µg/mL
[34]
  neutralization IC50: > 50 µg/mL
[35]
  neutralization IC50: > 50 µg/mL
[36]
  neutralization IC50: 44.4 µg/mL
[37]
  neutralization IC50: > 50 µg/mL
[38]
  neutralization IC50: 0.013 µg/mL
[39]
  neutralization IC50: > 50 µg/mL
[40]
  neutralization IC50: 0.012 µg/mL
[41]
  neutralization IC50: > 50 µg/mL
[42]
  neutralization IC50: > 50 µg/mL
[43]
  neutralization IC50: > 50 µg/mL
[44]
  neutralization IC50: > 50 µg/mL
[45]
  neutralization IC50: > 50 µg/mL
[46]
  neutralization IC50: > 50 µg/mL
[47]
  neutralization IC50: > 50 µg/mL
[48]
  neutralization IC50: 0.012 µg/mL
[49]
  neutralization IC50: > 50 µg/mL

B2: CAP256-VRC26.02 (antibody, V domains shown)
VH: EVQLVESGGGVVQPGRSLRLSCAASQFSFGNYGMHWVRQAPGKGLEWVAAISFAGTKTNYADSVKGRFTISRDNSKNTVYLQMNSLRAEDTALYFCAKDIREYECEYWTSDYYDFGRPQPCIDSRGVVGTFDVWGQGTMVTVSS
VL: QSVLTQPPSVSAAPGQKVTISCSGSNSNIGNKDVSWYQQIPATAPKLLIYENNKRPSGISDRFSGSKSGTSATLAITGLQTGDEADYYCATWDGRVSVIGTGTNVIVLG
[1]
  neutralization IC50: > 50 µg/mL
[2]
  neutralization IC50: > 50 µg/mL
[3]
  neutralization IC50: > 50 µg/mL
[4]
  neutralization IC50: > 50 µg/mL
[5]
  neutralization IC50: > 50 µg/mL
[6]
  neutralization IC50: > 50 µg/mL
[7]
  neutralization IC50: > 50 µg/mL
[8]
  neutralization IC50: > 50 µg/mL
[9]
  neutralization IC50: > 50 µg/mL
[10]
  neutralization IC50: > 50 µg/mL
[11]
  neutralization IC50: > 50 µg/mL
[12]
  neutralization IC50: > 50 µg/mL
[13]
  neutralization IC50: > 50 µg/mL
[14]
  neutralization IC50: > 50 µg/mL
[15]
  neutralization IC50: 0.057 µg/mL
[16]
  neutralization IC50: 2.03 µg/mL
[17]
  neutralization IC50: > 50 µg/mL
[18]
  neutralization IC50: > 50 µg/mL
[19]
  neutralization IC50: 1.97 µg/mL
[20]
  neutralization IC50: > 50 µg/mL
[21]
  neutralization IC50: > 50 µg/mL
[22]
  neutralization IC50: > 50 µg/mL
[23]
  neutralization IC50: > 50 µg/mL
[24]
  neutralization IC50: > 50 µg/mL
[25]
  neutralization IC50: > 50 µg/mL
[26]
  neutralization IC50: > 50 µg/mL
[27]
  neutralization IC50: > 50 µg/mL
[28]
  neutralization IC50: > 50 µg/mL
[29]
  neutralization IC50: 0.015 µg/mL
[30]
  neutralization IC50: > 50 µg/mL
[31]
  neutralization IC50: > 50 µg/mL
[32]
  neutralization IC50: > 50 µg/mL
[33]
  neutralization IC50: 0.701 µg/mL
[34]
  neutralization IC50: > 50 µg/mL
[35]
  neutralization IC50: > 50 µg/mL
[36]
  neutralization IC50: 7.98 µg/mL
[37]
  neutralization IC50: > 50 µg/mL
[38]
  neutralization IC50: 0.062 µg/mL
[39]
  neutralization IC50: > 50 µg/mL
[40]
  neutralization IC50: 0.043 µg/mL
[41]
  neutralization IC50: > 50 µg/mL
[42]
  neutralization IC50: > 50 µg/mL
[43]
  neutralization IC50: > 50 µg/mL
[44]
  neutralization IC50: > 50 µg/mL
[45]
  neutralization IC50: > 50 µg/mL
[46]
  neutralization IC50: > 50 µg/mL
[47]
  neutralization IC50: > 50 µg/mL
[48]
  neutralization IC50: 0.18 µg/mL
[49]
  neutralization IC50: > 50 µg/mL

B3: CAP256-VRC26.03 (antibody, V domains shown)
VH: EVQLVESGGGVVQPGKSLRLSCAASRFSFNRYGMHWVRQAPGKGLEWVAAISYDGTDKYHADKVWGRFTISRDNSKNTLYLQMNSLRAEDTALYYCAKDLREDECEEWWSDYYDFGKQLPCRKSRGVAGIFDGWGQGTMVTVSS
VL: QSVLTQPPSVSAAPGQKVTISCSGSSSNIGNNFVSWYQQRPGTAPKILIYENNKRPSETPDRFSGSKSGTSATLAITGLQTADEAEYYCATWSASLSSARVFGTGTRITVLG
[1]
  neutralization IC50: > 50 µg/mL
[2]
  neutralization IC50: > 50 µg/mL
[3]
  neutralization IC50: 4.76 µg/mL
[4]
  neutralization IC50: > 50 µg/mL
[5]
  neutralization IC50: > 50 µg/mL
[6]
  neutralization IC50: > 50 µg/mL
[7]
  neutralization IC50: > 50 µg/mL
[8]
  neutralization IC50: > 50 µg/mL
[9]
  neutralization IC50: > 50 µg/mL
[10]
  neutralization IC50: > 50 µg/mL
[11]
  neutralization IC50: > 50 µg/mL
[12]
  neutralization IC50: 0.014 µg/mL
[13]
  neutralization IC50: > 50 µg/mL
[14]
  neutralization IC50: 10.7 µg/mL
[15]
  neutralization IC50: 0.118 µg/mL
[16]
  neutralization IC50: 0.003 µg/mL
[17]
  neutralization IC50: > 50 µg/mL
[18]
  neutralization IC50: > 50 µg/mL
[19]
  neutralization IC50: 0.16 µg/mL
[20]
  neutralization IC50: 0.134 µg/mL
[21]
  neutralization IC50: > 50 µg/mL
[22]
  neutralization IC50: > 50 µg/mL
[23]
  neutralization IC50: > 50 µg/mL
[24]
  neutralization IC50: > 50 µg/mL
[25]
  neutralization IC50: > 50 µg/mL
[26]
  neutralization IC50: > 50 µg/mL
[27]
  neutralization IC50: > 50 µg/mL
[28]
  neutralization IC50: > 50 µg/mL
[29]
  neutralization IC50: 0.004 µg/mL
[30]
  neutralization IC50: > 50 µg/mL
[31]
  neutralization IC50: > 50 µg/mL
[32]
  neutralization IC50: > 50 µg/mL
[33]
  neutralization IC50: 0.032 µg/mL
[34]
  neutralization IC50: 0.117 µg/mL
[35]
  neutralization IC50: > 50 µg/mL
[36]
  neutralization IC50: > 50 µg/mL
[37]
  neutralization IC50: > 50 µg/mL
[38]
  neutralization IC50: 0.011 µg/mL
[39]
  neutralization IC50: > 50 µg/mL
[40]
  neutralization IC50: 0.008 µg/mL
[41]
  neutralization IC50: > 50 µg/mL
[42]
  neutralization IC50: > 50 µg/mL
[43]
  neutralization IC50: > 50 µg/mL
[44]
  neutralization IC50: > 50 µg/mL
[45]
  neutralization IC50: 0.039 µg/mL
[46]
  neutralization IC50: 1.5 µg/mL
[47]
  neutralization IC50: 0.119 µg/mL
[48]
  neutralization IC50: 0.003 µg/mL
[49]
  neutralization IC50: > 50 µg/mL
